The source of these data is paper PMC5663958, “DNA Ligase C and Prim-PolC participate in base excision repair in mycobacteria” (Nature Communications, 2017).

Test [1] concerns the target T1, tag-free LigC1 (6xHis-LigC subjected to thrombin digestion) (M. smegmatis, UniProt A0R5T2 1-348).
T1 construct: ATP-dependent DNA ligase C1 of Mycobacterium smegmatis, locus msmeg_6302; same construct as m2 with the tag cut off by thrombin; The methods say 'LigC', the results 'LigC1'; source: E. coli Origami B pLysS, purified; His-tag removed by a standard thrombin digestion; not shown: 6xHis, N-terminal, cleaved
T1 sequence (looked up): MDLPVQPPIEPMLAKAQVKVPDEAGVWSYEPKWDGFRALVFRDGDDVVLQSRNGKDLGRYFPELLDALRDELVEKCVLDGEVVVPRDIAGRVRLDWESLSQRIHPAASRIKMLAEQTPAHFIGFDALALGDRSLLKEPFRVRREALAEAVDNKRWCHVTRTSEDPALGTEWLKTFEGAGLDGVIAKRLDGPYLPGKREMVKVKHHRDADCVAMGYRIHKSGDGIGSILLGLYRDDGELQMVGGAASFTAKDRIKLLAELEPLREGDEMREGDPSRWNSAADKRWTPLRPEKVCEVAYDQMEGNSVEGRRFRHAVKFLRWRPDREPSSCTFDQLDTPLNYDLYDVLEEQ
In words: pull-down; FPG-6xHis or 6xHis-MPG bound to Ni-NTA resin in 50 mM Tris pH 8.0, 150 mM NaCl, 1 h at 4 °C; tag-free LigC or BSA added for 2 h; equimolar proteins; eluted with imidazole; SDS-PAGE and Coomassie staining. To be noted: both partners purified.

Test [2] deals with T2, DNA ligase C1 (LigC1, msmeg_6302), recombinant, His-tagged construct (M. smegmatis, UniProt A0R5T2 1-348).
T2 construct: ATP-dependent DNA ligase C1 of Mycobacterium smegmatis, locus msmeg_6302; Cloned in pET28; also called 6xHis-LigC; source: E. coli Origami B pLysS, purified (Ni Sepharose, ion exchange, gel filtration)
T2 sequence (looked up): T1 sequence (looked up)
The test is described as follows: far-Western, overlay or dot blot; recombinant proteins slot-blotted on a membrane (3 μg of the possible interactors, 50 ng of the probed protein), blocked in TBS, 0.05% Tween 20, 5% milk; incubated with 5 μg ml^−1 Prim-PolC or LigC1; detected with Prim-PolC- or LigC1-specific antibodies. The settings on record: both partners purified.

B1: FPG (MutM) bifunctional glycosylase, recombinant (enzyme, M. smegmatis, UniProt A0QV21 1-285, looked up)
chain: MPELPEVEVVRRGLAEHVTGKTITGVRVHHPRAVRRHEAGPADLTARLLDVRITGTGRRGKYLWLTLDDSAALVVHLGMSGQMLLGPIRDTRHLRIAAVLDDGTALSFVDQRTFGGWQLTEMVTVDGTDVPEPVAHIARDPLDPLFDRDRVVTVLRGKHSEIKRQLLDQTVVSGIGNIYADEALWRTKINGARIAAALPRRRLAELLDAAAEVMTDALGQGGTSFDSLYVNVNGESGYFDRSLDAYGREGEPCRRCGAIMRREKFMNRSSFYCPRCQPRPRVPRV
notes: Bifunctional DNA glycosylase FPG (MutM) of Mycobacterium smegmatis; Cloned in pET28; also called FPG-6xHis; source: E. coli Origami B pLysS, purified (Ni Sepharose, ion exchange, gel filtration); not shown: 6xHis, C-terminal, kept
For the molecule B1, the binding result in test [1] and in test [2] was “binds” throughout.
